# According to patent publication US20230002486A1 (SPARX THERAPEUTICS, published 2023):
# Numbering of substitutions follows the chain as printed. Read-outs that look alike come from different tables or passages of the source.
# B1: OB12A4, two-chain anti-CLDN 18.2/anti-PD-L1 (12A4) bispecific antibody (bispecific antibody)
# chain 1: not shown
# chain 2: EIVLTQSPATLSLSPGERATLSCRASQSVSSYLAWYQQKPGQAPRLLIYDASNRATGIPARFSGSGSGTDFTLTISSLEPEDFAVYYCQQRSNWPTFGQGTKVEIKSGGGGEVQLVESGGGLVQPGGSLRLSCAVSGYTFSMNWVRQAPGKGLEWVAWINMYTGEPTYADDFKGRFTISRDDSKNTLYLQMNSLRAEDTAVYYCARLYNGNSLDYWGQGTLVTVSSGGGGSEPKSSDKTHTCPPCPAPELLGGPSVFLFPPKPKDTLMISRTPEVTCVVVDVSHEDPEVKFNWYVDGVEVHNAKTKPREEQYNSTYRVVSVLTVLHQDWLNGKEYKCKVSNKALPAPIEKTISKAKGQPREPQVCTLPPSREEMTKNQVSLSCAVKGFYPSDIAVEWESNGQPENNYKTTPPVLDSDGSFFLVSKLTVDKSRWQQGNVFSCSVMHEALHNRFTQKSLSLSPGK
# B2: h5C9ob, monospecific parent anti-CLDN 18.2 monoclonal antibody (IgG) (antibody, V domains shown)
# VH: EVQLVESGGGLVQPGGSLRLSCAVSGYTFSMNWVRQAPGKGLEWVAWINMYTGEPTYADDFKGRFTISRDDSKNTLYLQMNSLRAEDTAVYYCARLYNGNSLDYWGQGTLVTVSS
# VL: DIQMTQSPSSLSASVGDRVTITCKSSQSLLNSGNQKSYLTWYQQKPGKAPKLLIYWASTLESGVPSRFSGSGSGTDYTLTISSLQPEDFATYYCQNAYFFPFTFGQGTKVEIKR
# notes: Whole human IgG1 produced as described under 'Production of Recombinant Antibodies'
# B3: 9O36-oae with LC55E, phage-displayed Fab (Fab, V domains shown)
# VH: B2 VH with N98R
# VL: DIQMTQSPSSLSASVGDRVTITCKSSQSLLNWGNQKSYLTWYQQKPGKAPKLLIYWASTLESGVPSRFSGSGSGTDYTLTISSLQPEDFATYYCQNAYFFPFTFGQGTKVEIK
# notes: built from 9O36-oae with light chain residue 55 (Kabat; the sixth residue of VL CDR2 WASTLMS) mutated back to Glu; also called 9O36 oaeL2
# B4: 9O41, phage-displayed Fab (Fab, V domains shown)
# VH: B2 VH with P55R
# VL: B3 VL with W32S, Q35I, E61R, F99S
# B5: 9O47E (9O47 with LC55E), phage-displayed Fab (Fab, V domains shown)
# VH: B2 VH with T56I
# VL: B3 VL with F99S
# notes: also called 9O47 LC55E (L2)
# B6: 9O24-oae with LC55E, phage-displayed Fab (Fab, V domains shown)
# VH: B2 VH with P55K, N98R
# VL: B3 VL with W32S, Q35W
# notes: built from 9O24-oae with light chain residue 55 (Kabat; the sixth residue of VL CDR2 WASTLVS) mutated back to Glu; also called 9O24 oaeL2
# B7: 9O24, phage-displayed Fab (Fab, V domains shown)
# VH: B2 VH with P55K
# VL: B3 VL with W32S, Q35W, E61V, F99S
# B8: 5C9oap-oaeE (5C9oap-oae with LC55E), phage-displayed Fab (Fab, V domains shown)
# VH: B2 VH with P55R, N98R
# VL: B3 VL
# notes: also called 5C9oap oaeL2; 5C9oap with 5C9oae and L2 mutations
# B9: 9O45-oae with LC55E, phage-displayed Fab (Fab, V domains shown)
# VH: B2 VH with P55T, N98R
# VL: B3 VL
# notes: built from 9O45-oae with light chain residue 55 (Kabat; the sixth residue of VL CDR2 WASTLYS) mutated back to Glu; also called 9O45 oaeL2
# B10: 9O47-oaeE (9O47-oae with LC55E), phage-displayed Fab (Fab, V domains shown)
# VH: B2 VH with T56I, N98R
# VL: B3 VL
# notes: also called 9O47 oaeL2; 9O47 with 5C9oae and L2 mutations
# B11: 5C9ob, phage-displayed Fab (Fab, V domains shown)
# VH: B2 VH
# VL: B3 VL with W32S
# notes: also called 5C9o with 5C9ob mutations
# B12: 9O47, phage-displayed Fab (Fab, V domains shown)
# VH: B2 VH with T56I
# VL: B3 VL with E61F, F99S
# B13: 9O45, phage-displayed Fab (Fab, V domains shown)
# VH: B2 VH with P55T
# VL: B3 VL with E61Y, F99S
# B14: 9O36, phage-displayed Fab (Fab, V domains shown)
# VH: B2 VH
# VL: B3 VL with E61M, F99S
# B15: Db11-21, heterodimeric (knob/hole) anti-CLDN 18.2/anti-PD-L1 bispecific antibody (bispecific antibody)
# chain 1: not shown
# chain 2: EIVLTQSPGTLSLSPGERATLSCRASQRVSSSYLAWYQQKPGQAPRLLIYDASSRATGIPDRFSGSGSGTDFTLTISRLEPEDFAVYYCQQYGSLPWTFGQGTKVEIKRSGGGGEVQLVESGGGLVQPGGSLRLSCAVSGYTFSMNWVRQAPGKGLEWVAWINMYTGEPTYADDFKGRFTISRDDSKNTLYLQMNSLRAEDTAVYYCARLYNGNSLDYWGQGTLVTVSSGGGGSEPKSSDKTHTCPPCPAPELLGGPSVFLFPPKPKDTLMISRTPEVTCVVVDVSHEDPEVKFNWYVDGVEVHNAKTKPREEQYNSTYRVVSVLTVLHQDWLNGKEYKCKVSNKALPAPIEKTISKAKGQPREPQVCTLPPSREEMTKNQVSLSCAVKGFYPSDIAVEWESNGQPENNYKTTPPVLDSDGSFFLVSKLTVDKSRWQQGNVFSCSVMHEALHNRFTQKSLSLSPGK
# notes: Db11: 5C9ob VL-L1-durvalumab VH-L2-knob Fc; Db21: durvalumab VL-L3-5C9ob VH-L4-hole Fc; also called Db11/Db21
# Assays:
# [1] = molecular target: T1, PD-L1 (programmed death-ligand 1), recombinant protein (human, UniProt Q9NZQ7 19-238, limits assumed); assay: ELISA, coated human PDL1 (FIG. 30B)
# T1 construct: the other ELISAs print only 'PD-L1'; also called human PDL1; CD274
# T1 sequence (Q9NZQ7 19-238 limits assumed): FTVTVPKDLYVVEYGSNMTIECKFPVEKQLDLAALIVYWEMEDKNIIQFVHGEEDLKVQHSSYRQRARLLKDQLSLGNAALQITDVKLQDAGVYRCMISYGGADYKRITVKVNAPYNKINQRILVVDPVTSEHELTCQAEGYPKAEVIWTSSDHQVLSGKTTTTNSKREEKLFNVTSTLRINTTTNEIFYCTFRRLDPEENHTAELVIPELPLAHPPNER
# mouse PDL1 = mouse PDL1 (mouse, UniProt Q9EP73 19-238, limits assumed); assay: ELISA, coated mouse PDL1 (FIG. 30B)
# mouse PDL1, sequence (Q9EP73 19-238 limits assumed): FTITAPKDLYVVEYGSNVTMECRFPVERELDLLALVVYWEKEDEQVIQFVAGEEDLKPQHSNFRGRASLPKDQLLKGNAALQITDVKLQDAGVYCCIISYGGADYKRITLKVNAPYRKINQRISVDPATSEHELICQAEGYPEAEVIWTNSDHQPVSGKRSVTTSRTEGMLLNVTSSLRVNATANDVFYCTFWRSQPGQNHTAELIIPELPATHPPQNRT
# [2] = molecular target: claudin 18.2 (CLDN 18.2), recombinant protein (human); assay: ELISA, coated CLDN18.2 (FIG. 30A)
# claudin 18.2 (CLDN 18.2), recombinant protein (human), sequence (chain, as listed by the source limits assumed): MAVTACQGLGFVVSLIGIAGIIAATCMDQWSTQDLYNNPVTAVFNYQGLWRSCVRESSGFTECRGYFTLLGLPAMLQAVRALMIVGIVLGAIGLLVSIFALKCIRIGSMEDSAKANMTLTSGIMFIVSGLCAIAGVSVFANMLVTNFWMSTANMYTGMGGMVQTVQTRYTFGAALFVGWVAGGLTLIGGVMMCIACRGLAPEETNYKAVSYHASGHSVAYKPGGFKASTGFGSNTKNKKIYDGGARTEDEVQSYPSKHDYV
# [3] = molecular target: T1, PD-L1 (programmed death-ligand 1), …; assay: direct ELISA on coated human PD-L1
# [4] = molecular target: claudin 18.2 (CLDN 18.2), recombinant protein (human); assay: direct ELISA on coated CLDN 18.2
# [5] = molecular target: claudin 18.2 (CLDN 18.2), recombinant protein (human); assay: direct ELISA, coated recombinant CLDN 18.2 (FIG. 7A)
# [6] = molecular target: T2, CLDN 18.2 expressed on stably transfected cells (HEK293T-CLDN 18.2, MiaPaCa-CLDN 18.2) (human); assay: cell-based or functional assay
# T2 sequence (chain, as listed by the source limits assumed): as above
# [7] = molecular target: T3, CLDN 18.2 fused with GFP at its C-terminal, on MCF7 cells (MCF7-CLDN 18.2) (human); assay: cell-based or functional assay
# T3 sequence (chain, as listed by the source): as the sequence (chain, as listed by the source limits assumed) above
# [8] = molecular target: claudin 18.2 (CLDN 18.2), recombinant protein (human); assay: direct ELISA, coated recombinant CLDN 18.2
# Description: ELISA assay was employed to determine the binding properties of the bispecific antibodies to their antigens. […] The wells were then reacted with goat anti human IgG antibody conjugated with horseradish peroxidase (HRP).
# [9] = molecular target: T2, CLDN 18.2 expressed on stably …; assay: cell-based or functional assay; remark: listed apart in the source
# [10] = molecular target: T3, CLDN 18.2 fused with GFP at its …; assay: cell-based or functional assay; remark: listed apart in the source
# [11] = molecular target: claudin 18.2 (CLDN 18.2), recombinant protein (human); assay: direct ELISA, coated CLDN 18.2 (FIG. 28A)
# [12] = molecular target: claudin 18.2 (CLDN 18.2), recombinant protein (human); assay: competitive phage ELISA, phage-displayed Fab, coated and soluble CLDN 18.2; parameters: unit not given here
# Description: (§1) After 15 min incubation and washing, anti-M13 antibody/HRP conjugate was added and incubated for 30 min, then developed with TMB for 5-10 min and quenched with 1 M phosphoric acid. Binding signal was analyzed by the plate reader.
# (§2) To identify clones with improved solubility, CDR light chain residue 55 (LC55E or L2) was mutated back to Glu on clones 9O47, 5C9oap-oae, 9O24-oae, 9O36-oae, 9O45-oae, and 9O47-oae.
# [13] = molecular target: claudin 18.2 (CLDN 18.2), recombinant protein (human); assay: competitive phage ELISA: phage-displayed Fab pre-incubated with a dilution series of soluble CLDN 18.2 (axis: GFP-CLDN 18.2, nM), then added to plate-coated CLDN 18.2
# Description: as §1
# [14] = molecular target: claudin 18.2 (CLDN 18.2), recombinant protein (human); assay: as above; remark: listed apart in the source
# Description: as §1, §2
# [15] = molecular target: T1, PD-L1 (programmed death-ligand 1), …; assay: direct ELISA, coated PD-L1 (FIG. 28B)
binder,measurement,setting,value
B1,Kd,[1],0.412 nM
same,Kd,mouse PDL1,~11100 nM
same,Kd,[2],0.212 nM
same,EC50 (read off the curve),[3],~0.4 nM
same,EC50 (read off the curve),[4],~0.2 nM
B2,Kd,[5],0.133 nM
same,"ADCC Reporter in HEK293-CLDN18.2, EC50",[6],0.056 nM
same,"CDC in HEK293-CLDN 18.2, EC50",[6],0.43 nM
same,"CDC in MiaPaCa-CLDN 18.2, EC50",[6],0.52 nM
same,"ADCC Reporter in MCF7-CLDN 18.2, EC50",[7],0.006 nM
same,Kd,[8],0.13 nM
same,"ADCC reporter assay, EC50 (FIG. 18)",[9],0.0561 nM
same,"CDC against Mia Paca-CLDN 18.2 cells, EC50 (FIG. 17B)",[9],0.52 nM
same,"ADCC reporter assay, EC50 (FIG. 24A)",[10],0.00443 nM
same,Kd,[11],0.0819 nM
B3,binding affinity,[12],0.059
B4,binding affinity,[12],0.167
B5,binding affinity,[12],0.141
B6,binding affinity,[12],0.0604
B7,binding affinity,[12],0.144
same,IC50 (read off the curve),[13],~0.2 nM
B8,binding affinity,[12],0.0593
same,IC50 (read off the curve),[14],~0.06 nM
B9,binding affinity,[12],0.0562
B10,binding affinity,[12],0.0533
same,IC50 (read off the curve),[14],~0.06 nM
B11,binding affinity,[12],0.221
B12,binding affinity,[12],0.095
same,IC50 (read off the curve),[13],~0.1 nM
same,Kd,[13],0.095 nM
B13,binding affinity,[12],0.104
same,IC50 (read off the curve),[13],~0.1 nM
B14,binding affinity,[12],0.108
B15,Kd,[15],0.378 nM
same,Kd,[11],0.104 nM
